No end group written: not given here.

By IC50 is commonly meant the point on the concentration scale where inhibition reaches its midpoint. A low value points to inhibition by little substance.

The subject of one assay is purified I-A^g7.
Assay: not given
The conditions noted are these: cited from earlier work.
In the case of “HEL 11–25: HEL peptide tested by Carrasco-Marin et al. (AMKRHGLDNYRGYSL; UniProt P00698 29-43, looked up, fragment)”, the “direct binding to purified I-A^g7” value is “unable to demonstrate direct binding”.

A further assay concerns the target T1, purified I-A^g7 (Mus musculus, UniProt P04228+Q31135).
T1 sequence (P04228 24-256): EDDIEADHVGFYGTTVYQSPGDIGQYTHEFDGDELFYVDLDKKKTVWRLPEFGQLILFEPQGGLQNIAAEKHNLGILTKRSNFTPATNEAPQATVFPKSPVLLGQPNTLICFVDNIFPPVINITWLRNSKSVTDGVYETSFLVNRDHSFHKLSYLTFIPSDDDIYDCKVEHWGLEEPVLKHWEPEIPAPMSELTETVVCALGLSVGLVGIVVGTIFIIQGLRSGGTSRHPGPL
T1 sequence (Q31135 1-263): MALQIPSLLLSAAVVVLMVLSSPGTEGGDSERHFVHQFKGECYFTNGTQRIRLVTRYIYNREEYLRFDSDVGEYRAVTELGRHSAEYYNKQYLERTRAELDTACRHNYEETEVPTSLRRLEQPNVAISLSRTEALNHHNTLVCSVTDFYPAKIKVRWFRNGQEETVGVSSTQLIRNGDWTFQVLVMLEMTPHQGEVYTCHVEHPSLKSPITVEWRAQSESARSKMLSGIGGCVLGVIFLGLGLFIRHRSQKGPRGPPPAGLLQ
Description: biochemical. Format: binding, NOD mouse.
Details: not given
AAAMKRHGLDNYR-NH2 [HEL 9–21] displayed a half-inhibitory concentration (IC50) of 300 nM. In other words, the sub-micromolar range.
The same measure, in the same setting: to AAAMKRHGLDNYRG-NH2 [HEL 9–22] belongs 300 nM; to AAAMKRHGLDNYRGYS-NH2 [HEL 9–24], 200 nM; to AAAMKRHGLDNYRGYSL-NH2 [HEL 9–25], 300 nM.
Still for that read-out and setting: the figure for AAAMKRHGLDNYRGYSLG-NH2 [HEL 9–26] is 300 nM; for AAAMKRHGLDNYRGYSLGN-NH2 [HEL 9–27] it is 350 nM.
Consider AAMKRHGLDNYRGYSLGN-NH2 [HEL 10–27], for which the midpoint of inhibition, the IC50, lay at 300 nM.
On the same count and under the same terms, the figure for AMKRHGLDNYRGYSLGN-NH2 [HEL 11–27] is 300 nM; for HGLDNYRGYSLGN-NH2 [HEL 15–27] it is 20000 nM; for KRHGLDNYRG-NH2 [HEL 13–22] it is 250 nM.
Regarding KRHGLDNYRGY-NH2 [HEL 13–23], the IC50 came to 200 nM.
As to KRHGLDNYRGYSLGN-NH2 [HEL 13–27], the concentration for half-maximal inhibition (IC50) was 300 nM. Compared with the last substance, the IC50 is about 1.5-fold higher.
The same measure, in the same setting: the figure for MKRHGLDNYRGY-NH2 [HEL 12–23] is 250 nM.
Still for that read-out and setting: the figure for MKRHGLDNYRGYSLGN-NH2 [HEL 12–27] is 300 nM.
On the same count and under the same terms, the figure for RHGLDNYRGYSLGN-NH2 [HEL 14–27] is 2000 nM.

The test system of a further assay is purified I-A^g7. Description: biochemical. The assay is classed as binding, NOD mouse.
Details: not given
For the substance “KPKATAEQLKTVMDD [In serum albumin (560–574), reference compound]”, the “binding to I-A^g7 (in words)” value is “did not bind”.

Another assay addresses I-A^g7 (mouse (NOD; endogenous in 4G4.7 hybridoma)). Description: ELISA.
Details: not given
The substance HEL 9–17 (peptide) had a half-maximal inhibitory concentration (IC50) above 50000 nM.
On the same count and under the same terms, the figure for HEL 9–21 (peptide) is 300 nM; for HEL 9–22 (peptide) it is 300 nM; for HEL 9–24 (peptide) it is 200 nM.
On the same count and under the same terms, the figure for HEL 9–25 (peptide) is 300 nM; for HEL 9–26 (peptide) it is 300 nM.
Still for that read-out and setting: to HEL 9–27 (peptide) belongs 350 nM.
Turning to HEL 10–22 (peptide), the IC50 is 295 nM.
Still for that read-out and setting: to HEL 10–22 A10L (peptide) belongs 300 nM; to HEL 10–22 A11Y (peptide), 350 nM; to HEL 10–22 D18E (peptide), below 1000 nM.
The same measure, in the same setting: the figure for HEL 10–22 D18P (peptide) is 300 nM; for HEL 10–22 D18Q (peptide) it is 200 nM.
HEL 10–22 D18R (peptide) showed a 50% inhibitory concentration (IC50) below 1000 nM.
Still for that read-out and setting: to HEL 10–22 D18Y (peptide) belongs 100 nM; to HEL 10–22 G16D (peptide), 2000 nM; to HEL 10–22 G22A (peptide), 350 nM.
Same read-out and setting: the figure for HEL 10–22 G22P (peptide) is 650 nM; for HEL 10–22 G22Y (peptide) it is 300 nM; for HEL 10–22 H15A (peptide) it is 300 nM.
On the same count and under the same terms, the figure for HEL 10–22 H15D (peptide) is 1750 nM.
The substance HEL 10–22 K13A (peptide) showed an IC50 of 300 nM.
Still for that read-out and setting: the figure for HEL 10–22 K13Y (peptide) is 250 nM; for HEL 10–22 L17F (peptide) it is 1000 to 10000 nM; for HEL 10–22 L17H (peptide) it is 1000 to 10000 nM.
The same measure, in the same setting: to HEL 10–22 L17I (peptide) belongs below 1000 nM; to HEL 10–22 L17M (peptide), below 1000 nM; to HEL 10–22 L17N (peptide), 1000 to 10000 nM.
On the same count and under the same terms, the figure for HEL 10–22 L17T (peptide) is 1000 to 10000 nM; for HEL 10–22 L17V (peptide) it is below 1000 nM; for HEL 10–22 N19D (peptide) it is 2000 nM.
Regarding HEL 10–22 N19E (peptide), the half-maximal inhibitory concentration (IC50) is 1000 to 10000 nM.
HEL 10–22 N19F (peptide) returned a half-maximal inhibitory concentration (IC50) of 1000 to 10000 nM.
The same measure, in the same setting: the figure for HEL 10–22 N19G (peptide) is below 1000 nM; for HEL 10–22 N19Q (peptide) it is 2000 nM.
On the same count and under the same terms, the figure for HEL 10–22 N19R (peptide) is 1000 to 10000 nM; for HEL 10–22 N19S (peptide) it is below 1000 nM.
The same measure, in the same setting: to HEL 10–22 N19Y (peptide) belongs above 50000 nM.
In the case of HEL 10–22 R14A (peptide), the IC50 was 300 nM. That is a sub-micromolar value.
Same read-out and setting: to HEL 10–22 R14G (peptide) belongs 1000 to 10000 nM.
Same read-out and setting: the figure for HEL 10–22 R14S (peptide) is 1000 to 10000 nM; for HEL 10–22 R14W (peptide) it is 1000 to 10000 nM.
HEL 10–22 R21K (peptide) yielded an IC50 of 350 nM. This lies in the sub-micromolar range.
In turn, HEL 10–22 R21P (peptide) yielded a 50% inhibitory concentration (IC50) of 350 nM.
Still for that read-out and setting: the figure for HEL 10–22 R21Y (peptide) is 300 nM; for HEL 10–22 Y20F (peptide) it is below 1000 nM.
As to HEL 10–22 Y20H (peptide), the IC50 lay in the range of 1000 to 10000 nM.
In turn, HEL 10–22 Y20M (peptide) came in with an IC50 of 1000 to 10000 nM.
Still for that read-out and setting: to HEL 10–22 Y20N (peptide) belongs 1000 to 10000 nM; to HEL 10–22 Y20Q (peptide), 2000 nM; to HEL 10–22 Y20R (peptide), below 1000 nM.
Same read-out and setting: the figure for HEL 10–22 Y20W (peptide) is 1000 to 10000 nM; for HEL 10–23 (peptide) it is 295 nM.
Still for that read-out and setting: the figure for HEL 10–27 (peptide) is 300 nM; for HEL 11–27 (peptide) it is 300 nM.
Turning to HEL 12–23 (peptide), the concentration for half-maximal inhibition (IC50) came to 250 nM.
Take HEL 12–27 (peptide): the IC50 amounted to 300 nM. This IC50 and that of the substance before are within 1.5-fold of each other.
The same measure, in the same setting: the figure for HEL 13–22 (peptide) is 250 nM; for HEL 13–23 (peptide) it is 200 nM; for HEL 13–27 (peptide) it is 300 nM.
Same read-out and setting: the figure for HEL 14–27 (peptide) is 2000 nM.
HEL 16–27 (peptide): the concentration for half-maximal inhibition (IC50) was above 50000 nM.
Same read-out and setting: to HEL 17–27 (peptide) belongs above 50000 nM.
On the same count and under the same terms, the figure for HEL 18–27 (peptide) is above 50000 nM.
On the same count and under the same terms, the figure for HEL 19–27 (peptide) is above 50000 nM; for human proinsulin 5–19 (peptide) it is 30000 nM.
For the substance human proinsulin 9–23 (peptide), the half-maximal inhibitory concentration (IC50) was 1000 nM.
The same measure, in the same setting: to human proinsulin 21–35 (peptide) belongs 1000 nM; to human proinsulin 25–39 (peptide), 1000 nM; to human proinsulin 49–63 (peptide), 1000 nM.
